Common to all, as to test: KD; method not stated
Assay [1] has as its target T1, mouse PD-L1 protein (mouse, UniProt Q9EP73 19-238).
T1 construct: also called mPD-L1

Assay [2] deals with T2, cynomolgus PD-L1 protein (cynomolgus monkey, UniProt G7PSE7 19-238).
T2 construct: also called cyPD-L1; Cyno PD-L1

Assay [3] deals with T3, human PD-L1 protein (human, UniProt Q9NZQ7 19-238).
T3 construct: Soluble protein used for the KD measurements; construct not described; also called hPD-L1; CD274

The target in assay [4] is T4, human CD47 protein (human, UniProt Q08722 19-139, limits assumed).
T4 construct: Soluble protein used for the KD measurements; construct not described; also called hCD47; CD47 (human)
T4 sequence (Q08722 19-139 limits assumed): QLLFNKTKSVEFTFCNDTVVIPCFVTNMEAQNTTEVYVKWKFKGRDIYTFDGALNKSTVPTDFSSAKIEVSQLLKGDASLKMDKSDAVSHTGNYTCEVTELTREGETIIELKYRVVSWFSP

For assay [5], the target named is T5, cynomolgus CD47 protein (cynomolgus monkey, UniProt A0A2K5X523 19-139).
T5 construct: also called cyCD47; Cyno CD47

The source of these data is patent publication US20210179716A1 (Pfizer, published 2021).

What is called Kd is the concentration at which binding is half-saturated. A high value points to a looser complex.

T2 sequence (G7PSE7 entry or part of it): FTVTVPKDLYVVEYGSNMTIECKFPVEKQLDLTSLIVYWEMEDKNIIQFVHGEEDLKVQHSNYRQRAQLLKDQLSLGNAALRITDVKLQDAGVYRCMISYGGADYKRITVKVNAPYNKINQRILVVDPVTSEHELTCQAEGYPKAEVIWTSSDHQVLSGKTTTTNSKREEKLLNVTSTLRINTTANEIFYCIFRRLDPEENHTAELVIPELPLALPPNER
T3 sequence (Q9NZQ7 19-238 limits assumed): as the sequence (G7PSE7 entry or part of it) above, with T33A, S34A, N62S, Q68R, R82Q, L173F, A185T, I192T, L215H counted along it
T1 sequence (Q9EP73 19-238 limits assumed): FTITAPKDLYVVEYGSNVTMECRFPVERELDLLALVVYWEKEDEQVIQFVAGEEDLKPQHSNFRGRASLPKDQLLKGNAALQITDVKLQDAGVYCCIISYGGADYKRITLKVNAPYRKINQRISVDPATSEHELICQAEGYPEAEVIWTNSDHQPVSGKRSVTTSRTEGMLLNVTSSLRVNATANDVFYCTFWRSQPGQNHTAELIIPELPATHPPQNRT

B1: P06B05_D56E_G57A (antibody, V domains shown)
VH: EVQLVESGGGLVKPGGSLRLSCAASGFTFSNAWMNWVRQAPGKGLEWVGRIKTKAEAGTTDYAAPVKGRFTISRDDSKNTLYLQMNSLKTEDTAVYYCTTDPGSYWDSVYGGMDYWGQGTLVTVSS
VL: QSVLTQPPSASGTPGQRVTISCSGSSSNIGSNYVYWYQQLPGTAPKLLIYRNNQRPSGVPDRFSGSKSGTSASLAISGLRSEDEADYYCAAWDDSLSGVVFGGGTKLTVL
notes: Variant of P06B05
Regarding B1, the results for the Kd in assay [1], in assay [2] and in assay [3] were more than 1500 nM, 92.2 nM and 95.5 nM, respectively.

B2: P06B05_S104A (antibody, V domains shown)
VH: EVQLVESGGGLVKPGGSLRLSCAASGFTFSNAWMNWVRQAPGKGLEWVGRIKTKADGGTTDYAAPVKGRFTISRDDSKNTLYLQMNSLKTEDTAVYYCTTDPGAYWDSVYGGMDYWGQGTLVTVSS
VL: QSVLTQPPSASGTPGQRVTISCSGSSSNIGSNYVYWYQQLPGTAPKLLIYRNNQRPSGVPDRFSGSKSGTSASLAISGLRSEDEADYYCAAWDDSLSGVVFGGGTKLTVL
notes: Variant of P06B05
Regarding B2, the dissociation constant (Kd) is 3.93 nM in assay [2] and 3.5 nM in assay [3].

B3: P06B05_Y105H (antibody, V domains shown)
VH: EVQLVESGGGLVKPGGSLRLSCAASGFTFSNAWMNWVRQAPGKGLEWVGRIKTKADGGTTDYAAPVKGRFTISRDDSKNTLYLQMNSLKTEDTAVYYCTTDPGSHWDSVYGGMDYWGQGTLVTVSS
VL: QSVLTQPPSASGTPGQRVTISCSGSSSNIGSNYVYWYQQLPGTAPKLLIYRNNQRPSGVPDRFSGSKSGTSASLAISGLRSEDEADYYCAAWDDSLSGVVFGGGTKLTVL
notes: Variant of P06B05
For the molecule B3, the Kd came to 6.58 nM in assay [2] and 12.8 nM in assay [3].

B4: P06B05_D107S (antibody, V domains shown)
VH: EVQLVESGGGLVKPGGSLRLSCAASGFTFSNAWMNWVRQAPGKGLEWVGRIKTKADGGTTDYAAPVKGRFTISRDDSKNTLYLQMNSLKTEDTAVYYCTTDPGSYWSSVYGGMDYWGQGTLVTVSS
VL: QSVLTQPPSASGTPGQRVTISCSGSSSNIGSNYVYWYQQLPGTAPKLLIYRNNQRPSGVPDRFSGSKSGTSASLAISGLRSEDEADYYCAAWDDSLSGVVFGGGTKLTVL
notes: Variant of P06B05
For the molecule B4, the Kd in assay [2] stood at 26.3 nM; in assay [3] it was 23.9 nM.

B5: P06B05_M113L (antibody, V domains shown)
VH: EVQLVESGGGLVKPGGSLRLSCAASGFTFSNAWMNWVRQAPGKGLEWVGRIKTKADGGTTDYAAPVKGRFTISRDDSKNTLYLQMNSLKTEDTAVYYCTTDPGSYWDSVYGGLDYWGQGTLVTVSS
VL: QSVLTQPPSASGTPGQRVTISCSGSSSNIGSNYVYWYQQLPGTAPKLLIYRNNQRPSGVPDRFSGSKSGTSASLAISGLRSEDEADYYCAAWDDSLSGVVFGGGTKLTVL
notes: Variant of P06B05
For B5, the figures for the Kd in assay [2] and in assay [3] were 6.55 nM and 6.82 nM, respectively.

B6: P06B05_D61A_Y62A (antibody, V domains shown)
VH: EVQLVESGGGLVKPGGSLRLSCAASGFTFSNAWMNWVRQAPGKGLEWVGRIKTKADGGTTAAAAPVKGRFTISRDDSKNTLYLQMNSLKTEDTAVYYCTTDPGSYWDSVYGGMDYWGQGTLVTVSS
VL: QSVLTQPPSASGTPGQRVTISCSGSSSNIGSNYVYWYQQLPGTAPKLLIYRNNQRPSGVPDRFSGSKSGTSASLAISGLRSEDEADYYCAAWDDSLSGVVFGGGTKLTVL
notes: Variant of P06B05
With B6, the figures for the Kd in assay [2] and in assay [3] were 3.67 nM and 4.01 nM, respectively.

B7: P06B05_D61E_Y62E (antibody, V domains shown)
VH: EVQLVESGGGLVKPGGSLRLSCAASGFTFSNAWMNWVRQAPGKGLEWVGRIKTKADGGTTEEAAPVKGRFTISRDDSKNTLYLQMNSLKTEDTAVYYCTTDPGSYWDSVYGGMDYWGQGTLVTVSS
VL: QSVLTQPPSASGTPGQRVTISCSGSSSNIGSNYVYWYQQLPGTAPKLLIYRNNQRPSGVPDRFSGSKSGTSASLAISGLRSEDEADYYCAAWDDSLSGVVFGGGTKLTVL
notes: Variant of P06B05
B7: the Kd in assay [2] came to 8.39 nM; in assay [3] it was 9.49 nM.

B8: P06B05_D61S_Y62A (antibody, V domains shown)
VH: EVQLVESGGGLVKPGGSLRLSCAASGFTFSNAWMNWVRQAPGKGLEWVGRIKTKADGGTTSAAAPVKGRFTISRDDSKNTLYLQMNSLKTEDTAVYYCTTDPGSYWDSVYGGMDYWGQGTLVTVSS
VL: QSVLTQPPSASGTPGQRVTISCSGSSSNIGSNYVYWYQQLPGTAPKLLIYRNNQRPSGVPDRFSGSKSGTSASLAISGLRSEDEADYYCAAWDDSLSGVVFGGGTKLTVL
notes: Variant of P06B05
Regarding B8, the Kd is less than 1.19 nM in assay [2] and 6.71 nM in assay [3].

B9: P06B05_S104Y (antibody, V domains shown)
VH: EVQLVESGGGLVKPGGSLRLSCAASGFTFSNAWMNWVRQAPGKGLEWVGRIKTKADGGTTDYAAPVKGRFTISRDDSKNTLYLQMNSLKTEDTAVYYCTTDPGYYWDSVYGGMDYWGQGTLVTVSS
VL: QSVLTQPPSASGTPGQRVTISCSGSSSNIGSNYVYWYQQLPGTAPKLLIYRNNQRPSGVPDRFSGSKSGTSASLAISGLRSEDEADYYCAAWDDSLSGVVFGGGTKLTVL
notes: Variant of P06B05
Regarding B9, the figures for the Kd in assay [2] and in assay [3] were 5.79 nM and 9.75 nM, respectively.

B10: P06B05_V109S (antibody, V domains shown)
VH: EVQLVESGGGLVKPGGSLRLSCAASGFTFSNAWMNWVRQAPGKGLEWVGRIKTKADGGTTDYAAPVKGRFTISRDDSKNTLYLQMNSLKTEDTAVYYCTTDPGSYWDSSYGGMDYWGQGTLVTVSS
VL: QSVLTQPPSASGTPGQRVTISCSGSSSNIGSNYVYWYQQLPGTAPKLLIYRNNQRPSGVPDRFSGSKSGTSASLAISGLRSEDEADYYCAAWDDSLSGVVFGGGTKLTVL
notes: Variant of P06B05
B10: the dissociation constant Kd in assay [2] was more than 100 nM; in assay [3], 76.5 nM.

B11: P06B05_D61Q_Y62E (antibody, V domains shown)
VH: EVQLVESGGGLVKPGGSLRLSCAASGFTFSNAWMNWVRQAPGKGLEWVGRIKTKADGGTTQEAAPVKGRFTISRDDSKNTLYLQMNSLKTEDTAVYYCTTDPGSYWDSVYGGMDYWGQGTLVTVSS
VL: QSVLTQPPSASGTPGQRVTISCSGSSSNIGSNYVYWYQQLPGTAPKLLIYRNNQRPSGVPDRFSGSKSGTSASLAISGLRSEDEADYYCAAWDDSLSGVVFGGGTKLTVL
notes: Variant of P06B05
For the molecule B11, the Kd in assay [2] stood at 4.43 nM; in assay [3], 5.81 nM.

B12: P06B05_D61S_Y62Q (antibody, V domains shown)
VH: EVQLVESGGGLVKPGGSLRLSCAASGFTFSNAWMNWVRQAPGKGLEWVGRIKTKADGGTTSQAAPVKGRFTISRDDSKNTLYLQMNSLKTEDTAVYYCTTDPGSYWDSVYGGMDYWGQGTLVTVSS
VL: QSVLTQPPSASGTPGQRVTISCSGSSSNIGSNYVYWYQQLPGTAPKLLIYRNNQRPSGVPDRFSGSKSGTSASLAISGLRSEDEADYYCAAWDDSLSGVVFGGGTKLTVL
notes: Variant of P06B05
Regarding B12, the figures for the dissociation constant Kd in assay [2] and in assay [3] were 3.73 nM and 5.98 nM, respectively.

B13: P06B05_D61A_Y62S (antibody, V domains shown)
VH: EVQLVESGGGLVKPGGSLRLSCAASGFTFSNAWMNWVRQAPGKGLEWVGRIKTKADGGTTASAAPVKGRFTISRDDSKNTLYLQMNSLKTEDTAVYYCTTDPGSYWDSVYGGMDYWGQGTLVTVSS
VL: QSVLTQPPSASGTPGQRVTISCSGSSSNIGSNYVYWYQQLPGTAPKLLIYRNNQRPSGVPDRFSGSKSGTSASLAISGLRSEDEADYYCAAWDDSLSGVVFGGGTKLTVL
notes: Variant of P06B05
With B13, the figures for the dissociation constant (Kd) in assay [2] and in assay [3] were 2.75 nM and 5.37 nM, respectively.

B14: P06B05_G103I (antibody, V domains shown)
VH: EVQLVESGGGLVKPGGSLRLSCAASGFTFSNAWMNWVRQAPGKGLEWVGRIKTKADGGTTDYAAPVKGRFTISRDDSKNTLYLQMNSLKTEDTAVYYCTTDPISYWDSVYGGMDYWGQGTLVTVSS
VL: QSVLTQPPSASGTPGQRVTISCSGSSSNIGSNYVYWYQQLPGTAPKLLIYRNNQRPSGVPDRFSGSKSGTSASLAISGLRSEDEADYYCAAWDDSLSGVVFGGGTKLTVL
notes: Variant of P06B05
For B14, the Kd in assay [2] worked out at 8.11 nM; in assay [3], 8.06 nM.

B15: P06B05_D107L (antibody, V domains shown)
VH: EVQLVESGGGLVKPGGSLRLSCAASGFTFSNAWMNWVRQAPGKGLEWVGRIKTKADGGTTDYAAPVKGRFTISRDDSKNTLYLQMNSLKTEDTAVYYCTTDPGSYWLSVYGGMDYWGQGTLVTVSS
VL: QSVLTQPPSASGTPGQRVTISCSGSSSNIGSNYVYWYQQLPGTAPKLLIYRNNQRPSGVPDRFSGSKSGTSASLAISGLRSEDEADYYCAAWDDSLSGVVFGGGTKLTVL
notes: Variant of P06B05
In the case of B15, the values for the Kd in assay [2] and in assay [3] were 83 nM and 90.2 nM, respectively.

B16: P06B05_G112A (antibody, V domains shown)
VH: EVQLVESGGGLVKPGGSLRLSCAASGFTFSNAWMNWVRQAPGKGLEWVGRIKTKADGGTTDYAAPVKGRFTISRDDSKNTLYLQMNSLKTEDTAVYYCTTDPGSYWDSVYGAMDYWGQGTLVTVSS
VL: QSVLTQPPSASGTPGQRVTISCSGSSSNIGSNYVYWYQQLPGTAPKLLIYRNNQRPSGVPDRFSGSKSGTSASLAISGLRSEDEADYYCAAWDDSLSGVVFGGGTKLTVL
notes: Variant of P06B05
On to B16, for which the dissociation constant (Kd) in assay [1] is 131 nM; in assay [2] it was 3.72 nM; in assay [3], 3.71 nM.

B17: P06B05_D61Q_Y62S (antibody, V domains shown)
VH: EVQLVESGGGLVKPGGSLRLSCAASGFTFSNAWMNWVRQAPGKGLEWVGRIKTKADGGTTQSAAPVKGRFTISRDDSKNTLYLQMNSLKTEDTAVYYCTTDPGSYWDSVYGGMDYWGQGTLVTVSS
VL: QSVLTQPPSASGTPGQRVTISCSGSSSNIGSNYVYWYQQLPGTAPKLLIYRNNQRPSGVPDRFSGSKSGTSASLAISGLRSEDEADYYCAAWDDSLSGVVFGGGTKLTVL
notes: Variant of P06B05
As for B17, the Kd in assay [2] came to 5.54 nM; in assay [3] it was 5.02 nM.

B18: P06B05_D56E_G57E (antibody, V domains shown)
VH: EVQLVESGGGLVKPGGSLRLSCAASGFTFSNAWMNWVRQAPGKGLEWVGRIKTKAEEGTTDYAAPVKGRFTISRDDSKNTLYLQMNSLKTEDTAVYYCTTDPGSYWDSVYGGMDYWGQGTLVTVSS
VL: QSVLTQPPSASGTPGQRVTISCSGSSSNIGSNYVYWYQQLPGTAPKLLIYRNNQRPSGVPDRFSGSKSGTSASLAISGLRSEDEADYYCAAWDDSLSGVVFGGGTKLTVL
notes: Variant of P06B05
B18: the results for the Kd in assay [2] and in assay [3] were 60.6 nM and 69.7 nM, respectively.

B19: P06B05_D61A_Y62E (antibody, V domains shown)
VH: EVQLVESGGGLVKPGGSLRLSCAASGFTFSNAWMNWVRQAPGKGLEWVGRIKTKADGGTTAEAAPVKGRFTISRDDSKNTLYLQMNSLKTEDTAVYYCTTDPGSYWDSVYGGMDYWGQGTLVTVSS
VL: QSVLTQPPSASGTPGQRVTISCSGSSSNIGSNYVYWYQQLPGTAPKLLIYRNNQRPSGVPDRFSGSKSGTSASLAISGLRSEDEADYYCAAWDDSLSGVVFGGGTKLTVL
notes: Variant of P06B05
For the molecule B19, the dissociation constant Kd amounted to 3.17 nM in assay [2] and 3.28 nM in assay [3].

B20: P06B05_D61S_Y62S (antibody, V domains shown)
VH: EVQLVESGGGLVKPGGSLRLSCAASGFTFSNAWMNWVRQAPGKGLEWVGRIKTKADGGTTSSAAPVKGRFTISRDDSKNTLYLQMNSLKTEDTAVYYCTTDPGSYWDSVYGGMDYWGQGTLVTVSS
VL: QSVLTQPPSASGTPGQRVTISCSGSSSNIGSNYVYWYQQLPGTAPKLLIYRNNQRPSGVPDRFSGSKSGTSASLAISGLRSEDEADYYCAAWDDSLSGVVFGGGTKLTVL
notes: Variant of P06B05
As for B20, the dissociation constant (Kd) in assay [2] was found to be 2.15 nM; in assay [3], 6.1 nM.

B21: P06B05_S104I (antibody, V domains shown)
VH: EVQLVESGGGLVKPGGSLRLSCAASGFTFSNAWMNWVRQAPGKGLEWVGRIKTKADGGTTDYAAPVKGRFTISRDDSKNTLYLQMNSLKTEDTAVYYCTTDPGIYWDSVYGGMDYWGQGTLVTVSS
VL: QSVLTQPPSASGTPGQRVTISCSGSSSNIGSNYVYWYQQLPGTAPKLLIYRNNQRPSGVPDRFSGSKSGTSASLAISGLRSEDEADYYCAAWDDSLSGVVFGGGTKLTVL
notes: Variant of P06B05
Take B21: the Kd was 0.99 nM in assay [2] and less than 0.74 nM in assay [3].

B22: P06B05_D61A_Y62Q (antibody, V domains shown)
VH: EVQLVESGGGLVKPGGSLRLSCAASGFTFSNAWMNWVRQAPGKGLEWVGRIKTKADGGTTAQAAPVKGRFTISRDDSKNTLYLQMNSLKTEDTAVYYCTTDPGSYWDSVYGGMDYWGQGTLVTVSS
VL: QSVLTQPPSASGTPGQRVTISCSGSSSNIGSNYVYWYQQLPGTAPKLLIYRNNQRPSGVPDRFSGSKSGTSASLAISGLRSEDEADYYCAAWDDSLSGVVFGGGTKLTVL
notes: Variant of P06B05
Take B22: the results for the Kd in assay [2] and in assay [3] were 4.96 nM and 5.97 nM, respectively.

B23: P06B05_S104H (antibody, V domains shown)
VH: EVQLVESGGGLVKPGGSLRLSCAASGFTFSNAWMNWVRQAPGKGLEWVGRIKTKADGGTTDYAAPVKGRFTISRDDSKNTLYLQMNSLKTEDTAVYYCTTDPGHYWDSVYGGMDYWGQGTLVTVSS
VL: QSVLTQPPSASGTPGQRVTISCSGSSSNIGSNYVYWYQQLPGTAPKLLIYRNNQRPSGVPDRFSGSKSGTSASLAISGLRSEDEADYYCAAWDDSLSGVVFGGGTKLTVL
notes: Variant of P06B05
As to B23, the dissociation constant (Kd) in assay [2] was 6.11 nM; in assay [3], 7.9 nM.

B24: P06B05_D107Y (antibody, V domains shown)
VH: EVQLVESGGGLVKPGGSLRLSCAASGFTFSNAWMNWVRQAPGKGLEWVGRIKTKADGGTTDYAAPVKGRFTISRDDSKNTLYLQMNSLKTEDTAVYYCTTDPGSYWYSVYGGMDYWGQGTLVTVSS
VL: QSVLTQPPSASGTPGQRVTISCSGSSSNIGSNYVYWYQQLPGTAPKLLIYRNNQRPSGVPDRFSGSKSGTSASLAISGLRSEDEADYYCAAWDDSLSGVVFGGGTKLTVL
notes: Variant of P06B05
In the case of B24, the dissociation constant (Kd) in assay [2] stood at 3.23 nM; in assay [3], 3.03 nM.

B25: P01A11_Y27G_L54I_G100A_M113I (antibody, V domains shown)
VH: QVQLVQSGAEVKKPGSSVKVSCKASGGTFTNYAISWVRQAPGQGLEWMGGISPIFGTANYAQKFQGRVTITADESTSTAYMELSSLRSEDTAVYYCARDAGRSSDVGWYVGAIDVWGQGTLVTVSS
VL: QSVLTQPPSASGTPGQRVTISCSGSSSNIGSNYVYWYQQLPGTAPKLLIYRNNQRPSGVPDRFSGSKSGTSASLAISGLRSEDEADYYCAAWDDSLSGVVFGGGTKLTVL
notes: Variant of P01A11
In the case of B25, the Kd amounted to 263 nM in assay [4] and 371 nM in assay [5].

B26: P01A11_Y27G_L54I_G100A_M113L (antibody, V domains shown)
VH: QVQLVQSGAEVKKPGSSVKVSCKASGGTFTNYAISWVRQAPGQGLEWMGGISPIFGTANYAQKFQGRVTITADESTSTAYMELSSLRSEDTAVYYCARDAGRSSDVGWYVGALDVWGQGTLVTVSS
VL: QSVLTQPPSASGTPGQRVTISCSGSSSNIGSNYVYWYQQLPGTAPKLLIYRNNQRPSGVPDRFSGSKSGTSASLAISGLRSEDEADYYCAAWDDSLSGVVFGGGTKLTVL
notes: Variant of P01A11
As to B26, the dissociation constant (Kd) in assay [4] came to 154 nM; in assay [5] it was 198 nM.

B27: P01A11_Y27G_N31S_L54I_G100A_M113L (antibody, V domains shown)
VH: QVQLVQSGAEVKKPGSSVKVSCKASGGTFTSYAISWVRQAPGQGLEWMGGISPIFGTANYAQKFQGRVTITADESTSTAYMELSSLRSEDTAVYYCARDAGRSSDVGWYVGALDVWGQGTLVTVSS
VL: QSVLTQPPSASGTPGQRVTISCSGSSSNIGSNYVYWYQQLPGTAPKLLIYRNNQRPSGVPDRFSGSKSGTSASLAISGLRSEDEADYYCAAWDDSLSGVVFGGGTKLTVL
notes: Variant of P01A11
Take B27: the Kd in assay [4] was 497 nM; in assay [5] it was 704 nM.
